Tests used:
[1] = biological target: T1, human LAG-3 (cell surface) (human, UniProt P18627); assay: FACS, CHO-human LAG-3
T1 chain: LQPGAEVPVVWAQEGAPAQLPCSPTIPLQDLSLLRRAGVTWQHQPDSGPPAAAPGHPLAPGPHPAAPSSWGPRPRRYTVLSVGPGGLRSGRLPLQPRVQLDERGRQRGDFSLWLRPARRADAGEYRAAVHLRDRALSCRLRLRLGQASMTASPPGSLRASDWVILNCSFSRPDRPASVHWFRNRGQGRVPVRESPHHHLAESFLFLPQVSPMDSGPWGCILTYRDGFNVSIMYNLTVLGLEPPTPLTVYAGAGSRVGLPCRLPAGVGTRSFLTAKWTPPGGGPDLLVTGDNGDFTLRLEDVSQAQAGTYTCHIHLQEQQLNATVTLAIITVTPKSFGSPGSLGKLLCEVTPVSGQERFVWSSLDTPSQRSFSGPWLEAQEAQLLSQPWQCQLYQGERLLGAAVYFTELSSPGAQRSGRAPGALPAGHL

[2] = biological target: T2, recombinant human LAG-3 fusion protein (human, UniProt P18627); assay: SPR
T2 chain: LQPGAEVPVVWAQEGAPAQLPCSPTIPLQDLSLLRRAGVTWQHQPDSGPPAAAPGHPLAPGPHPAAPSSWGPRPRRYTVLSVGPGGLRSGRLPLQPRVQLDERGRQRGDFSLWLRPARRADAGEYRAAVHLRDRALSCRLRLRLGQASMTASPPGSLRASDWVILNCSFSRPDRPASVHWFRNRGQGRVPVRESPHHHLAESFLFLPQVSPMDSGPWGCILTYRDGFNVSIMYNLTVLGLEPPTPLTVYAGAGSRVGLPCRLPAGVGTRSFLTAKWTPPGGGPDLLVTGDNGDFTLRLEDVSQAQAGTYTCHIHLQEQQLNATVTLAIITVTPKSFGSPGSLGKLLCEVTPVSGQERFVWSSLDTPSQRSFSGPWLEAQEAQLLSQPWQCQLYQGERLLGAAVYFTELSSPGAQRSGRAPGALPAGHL

B1: 17E5 (antibody)
chain 1: not shown
chain 2: EIVLTQSPATLSLSPGERATLSCRASQSVSSYLAWYQQKPGQAPRLLIYDASNRATGIPARFSGSGSGTDFTLTISSLEPEDFAVYYCQQRSNWPITFGQGTRLEIK
B1 showed an EC50 [1] of 12.3 nM and a Kd [2] of 4.53 nM.
